For one molecule, percent of the total L6-Ag co-immunoprecipitated (% of the total L6-Ag) results are on record in PMC2396850.

This assay addresses various tetraspanins. In words: co-IP.

B1: Tumour-associated antigen L6 (L6-Ag), endogenous (natural protein)
chain: MCYGKCARCIGHSLVGLALLCIAANILLYFPNGETKYASENHLSRFVWFFSGIVGGGLLMLLPAFVFIGLEQDDCCGCCGHENCGKRCAMLSSVLAALIGIAGSGYCVIVAALGLAEGPLCLDSLGQWNYTFASTEGQYLLDTSTWSECTEPKHIVEWNVSLFSILLALGGIEFILCLIQVINGVLGGICGFCCSHQQQYDC
Molecule B1 came in with a percent of the total L6-Ag co-immunoprecipitated (% of the total L6-Ag) of 10 to 15.
